These results are taken from paper PMC3650007, “Human Rotavirus VP6-Specific Antibodies Mediate Intracellular Neutralization by Binding to a Quaternary Structure in the Transcriptional Pore” (PLoS ONE, 2013).

This experiment concerns the target T1, VP6 fragment (VP6f), residues 147-339 (Rotavirus A, strain of the VP6 DNA …).
T1 construct: also called VP6 head domain construct
T1 chain: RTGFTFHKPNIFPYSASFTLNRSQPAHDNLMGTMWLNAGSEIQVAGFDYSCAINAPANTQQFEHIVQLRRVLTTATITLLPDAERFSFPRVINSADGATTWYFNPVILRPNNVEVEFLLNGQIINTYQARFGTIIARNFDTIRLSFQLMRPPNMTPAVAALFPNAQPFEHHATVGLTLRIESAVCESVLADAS
Nature of the experiment: HDX-MS. As to conditions: both partners purified.

B1: RV6-26 Fab (Fab, V domains shown)
VH: EFQLVESGAEVKKPGASVKVSCKASGYSFTSYYVHWVREAPGEGLEWMGMINPSDGSTYYAQRFQPRVTMTRDTSTTTVFMEMSGLRSEDTAVYYCARGVVGATNEIDFWGQGTTVTVSS
VL: DIRLTQSPSSLSASVGDRVTITCRASQSISNYLNWYQKKPGQAPKLLIYAATSLQSGVPSRFSGSGSGTDFTLTISSVQPEDFATYYCQKTLRTWTFGQGTKVEIK
B1: the binding result is “binds”.
